Consider five substances from patent US20160193357A1.

One may read the Kd as the constant that tells how readily two partners part at equilibrium.

The target of experiment [1] is human Trop-2 on cells (human) (UniProt P09758). The experiment can be described thus: cell binding on NCI-N87, anti-mouse-HRP, luminescence.
Experiment [2] shares this target. The experiment can be described thus: cell binding assay; cell line not stated.
The target in experiment [3] is rhTrop-2/TACSTD2 (Sino Biological, Inc.) (human) (UniProt P09758). As to the kind of experiment: SPR (BIACORE), Trop-2 on chip. Background: Surface plasmon resonance follows binding to a sensor surface in real time, without labels.
rhTrop-2/TACSTD2 (Sino Biological, Inc.) (human), sequence (P09758 27-274 limits assumed): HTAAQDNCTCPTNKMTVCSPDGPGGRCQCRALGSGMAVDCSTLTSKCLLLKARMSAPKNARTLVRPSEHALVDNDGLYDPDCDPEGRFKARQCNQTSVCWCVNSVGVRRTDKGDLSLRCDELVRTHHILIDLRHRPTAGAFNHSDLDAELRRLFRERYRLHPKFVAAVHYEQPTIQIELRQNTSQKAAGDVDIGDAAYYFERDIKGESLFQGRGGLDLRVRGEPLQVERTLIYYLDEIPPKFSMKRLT
Experiment [4] deals with recombinant human neonatal receptor (FcRn) (human) (UniProt P55899). As to the kind of experiment: SPR (BIACORE), FcRn on chip.
recombinant human neonatal receptor (FcRn) (human), sequence (P55899 24-297 limits assumed, chain 1 of 2): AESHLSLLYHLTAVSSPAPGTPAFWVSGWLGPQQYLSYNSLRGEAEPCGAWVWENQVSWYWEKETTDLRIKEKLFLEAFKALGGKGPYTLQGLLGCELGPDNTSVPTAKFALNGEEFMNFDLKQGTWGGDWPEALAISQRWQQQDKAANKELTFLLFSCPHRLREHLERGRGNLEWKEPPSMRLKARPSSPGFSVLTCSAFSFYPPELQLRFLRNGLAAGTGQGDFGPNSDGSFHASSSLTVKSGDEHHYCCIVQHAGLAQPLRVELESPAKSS
recombinant human neonatal receptor (FcRn) (human), sequence (P61769 21-119 limits assumed, chain 2 of 2, further chain): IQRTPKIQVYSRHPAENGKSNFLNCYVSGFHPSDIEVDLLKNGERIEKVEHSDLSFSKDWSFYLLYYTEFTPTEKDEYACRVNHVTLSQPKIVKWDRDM
Experiment [5] deals with human Trop-2 on cells (human) (UniProt P09758). The experiment can be described thus: cell-based or functional assay.
Experiment [6] concerns the target rhTrop-2/TACSTD2 (Sino Biological, Inc.) (human) (UniProt P09758). The experiment can be described thus: SPR (BIACORE), recombinant human Trop-2 on low-density CM5 chip, 1:1 model, three runs.
The target of experiment [7] is recombinant human neonatal receptor (FcRn) (human) (UniProt P55899). As to the kind of experiment: SPR (BIACORE), FcRn on low-density chip, three runs at 400 to 25 nM.
In experiment [8] the target is Recombinant human Trop-2 with a His-tag (Sino Biological, Cat#10428-H09H) (human) (UniProt P09758). As to the kind of experiment: ELISA on His-tagged recombinant human Trop-2 captured on Ni-NTA strips.
Recombinant human Trop-2 with a His-tag (Sino Biological, Cat#10428-H09H) (human), sequence (P09758 27-274 limits assumed): as the sequence (P09758 27-274 limits assumed) above

human Trop-2 on cells (human), sequence (P09758 27-323): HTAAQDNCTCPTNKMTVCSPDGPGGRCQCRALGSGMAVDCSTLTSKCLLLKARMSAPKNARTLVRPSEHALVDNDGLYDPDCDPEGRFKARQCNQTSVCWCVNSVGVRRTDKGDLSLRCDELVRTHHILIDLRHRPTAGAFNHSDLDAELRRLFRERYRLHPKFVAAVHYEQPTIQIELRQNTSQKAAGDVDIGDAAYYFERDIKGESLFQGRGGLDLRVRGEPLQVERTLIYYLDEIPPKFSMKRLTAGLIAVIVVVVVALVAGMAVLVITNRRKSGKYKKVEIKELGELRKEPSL

Regarding “162-46.2 murine anti-Trop-2 monoclonal antibody”, in experiment [1], the BMax (relative luminescent units) was found to be 8470, the Kd came to 0.52 nM and the reduction of maximum binding (Bmax) compared to RS7 was found to be 25%.

Turning to “MAB650 murine anti-Trop-2 monoclonal antibody (R&D Systems)”, in experiment [1], the BMax (relative luminescent units) is 6020, the Kd came out at 0.49 nM and the reduction of maximum binding (Bmax) compared to RS7 came to 50%.

“Sacituzumab govitecan (IMMU-132, also known as hRS7-CL2A-SN-38) (antibody)”: the Kd in experiment [2] amounted to 1.2 nM. This substance also had a fold improvement in KD compared to naked hRS7 in experiment [3] of 2 fold. For the same substance, in experiment [4], the fold lower average binding level than hRS7 worked out at 2 fold. In experiment [5], this substance gave an ADCC, specific lysis of MDA-MB-468 by PBMCs (E:T 50:1, 33.3 nM) of 8.6%; a Median fluorescence intensity of phospho-H2AX staining (dsDNA breaks), HCC1806 (Trop-2+), after 30 min at 4° C., wash and overnight culture of 546 MFI; a γH2AX induction in BxPC-3, Mean Fluorescence Intensity of 5350 MFI; a γH2AX induction in BxPC-3, Percent Positive of 69%. Further, in experiment [6], the Kd amounted to 0.26 nM. Further, the Kd in experiment [7] was 192 nM.

With “hA20 anti-CD20-SN38 conjugate (antibody)”, in experiment [5], the γH2AX induction in BxPC-3, Mean Fluorescence Intensity was 2250 MFI and the γH2AX induction in BxPC-3, Percent Positive was found to be 12.7%.

As to “humanized RS7 (hRS7) anti-Trop-2 antibody”, in experiment [5], the ADCC, specific lysis of BxPC-3 by PBMCs (E:T 100:1, 33.3 nM) turned out to be 8.5%. This substance also yielded an ADCC, specific lysis of MDA-MB-468 by PBMCs (E:T 50:1, 33.3 nM) in experiment [5] of 29.8%. Further, the Kd in experiment [6] was found to be 0.51 nM; in experiment [8], 0.3 nM; in experiment [7], 92.4 nM.
